Measured values from paper PMC7367873, “Dissecting the sequence determinants for dephosphorylation by the catalytic subunits of phosphatases PP1 and PP2A” (Nature Communications, 2020).
One block for each molecule: values may come before it.

Experiments:
GFP-14-3-3β = GFP-14-3-3β co-IP with LC-MS/MS, untreated GFP-14-3-3β versus GFP control (14-3-3 interactome); type: binding, human; settings: pairwise comparison untreated vs GFP
[1] = test system: GFP-14-3-3β and its binding proteins; assay: GFP-14-3-3β co-IP with LC-MS/MS label-free quantification, untreated versus PP1c-treated; design: species or system human; settings: pairwise comparison PP1 vs untreated
[2] = log2 difference, label-free quantification, 3 replicates each

B2: HERC5 (protein, UniProt Q9UII4 1-1024, looked up)
E3 ISG15--protein ligase HERC5: MERRSRRKSRRNGRSTAGKAAATQPAKSPGAQLWLFPSAAGLHRALLRRVEVTRQLCCSPGRLAVLERGGAGVQVHQLLAGSGGARTPKCIKLGKNMKIHSVDQGAEHMLILSSDGKPFEYDNYSMKHLRFESILQEKKIIQITCGDYHSLALSKGGELFAWGQNLHGQLGVGRKFPSTTTPQIVEHLAGVPLAQISAGEAHSMALSMSGNIYSWGKNECGQLGLGHTESKDDPSLIEGLDNQKVEFVACGGSHSALLTQDGLLFTFGAGKHGQLGHNSTQNELRPCLVAELVGYRVTQIACGRWHTLAYVSDLGKVFSFGSGKDGQLGNGGTRDQLMPLPVKVSSSEELKLESHTSEKELIMIAGGNQSILLWIKKENSYVNLKRTIPTLNEGTVKRWIADVETKRWQSTKREIQEIFSSPACLTGSFLRKRRTTEMMPVYLDLNKARNIFKELTQKDWITNMITTCLKDNLLKRLPFHSPPQEALEIFFLLPECPMMHISNNWESLVVPFAKVVCKMSDQSSLVLEEYWATLQESTFSKLVQMFKTAVICQLDYWDESAEENGNVQALLEMLKKLHRVNQVKCQLPESIFQVDELLHRLNFFVEVCRRYLWKMTVDASENVQCCVIFSHFPFIFNNLSKIKLLHTDTLLKIESKKHKAYLRSAAIEEERESEFALRPTFDLTVRRNHLIEDVLNQLSQFENEDLRKELWVSFSGEIGYDLGGVKKEFFYCLFAEMIQPEYGMFMYPEGASCMWFPVKPKFEKKRYFFFGVLCGLSLFNCNVANLPFPLALFKKLLDQMPSLEDLKELSPDLGKNLQTLLDDEGDNFEEVFYIHFNVHWDRNDTNLIPNGSSITVNQTNKRDYVSKYINYIFNDSVKAVYEEFRRGFYKMCDEDIIKLFHPEELKDVIVGNTDYDWKTFEKNARYEPGYNSSHPTIVMFWKAFHKLTLEEKKKFLVFLTGTDRLQMKDLNNMKITFCCPESWNERDPIRALTCFSVLFLPKYSTMETVEEALQEAINNNRGFG
Difference (log2), untreated vs GFP (GFP-14-3-3β; [2]): 0.5274
Difference (log2), PP1 vs untreated [1, 2]: 2.053

B5: MRE11A (protein, UniProt P49959 2-708, looked up)
Double-strand break repair …: STADALDDENTFKILVATDIHLGFMEKDAVRGNDTFVTLDEILRLAQENEVDFILLGGDLFHENKPSRKTLHTCLELLRKYCMGDRPVQFEILSDQSVNFGFSKFPWVNYQDGNLNISIPVFSIHGNHDDPTGADALCALDILSCAGFVNHFGRSMSVEKIDISPVLLQKGSTKIALYGLGSIPDERLYRMFVNKKVTMLRPKEDENSWFNLFVIHQNRSKHGSTNFIPEQFLDDFIDLVIWGHEHECKIAPTKNEQQLFYISQPGSSVVTSLSPGEAVKKHVGLLRIKGRKMNMHKIPLHTVRQFFMEDIVLANHPDIFNPDNPKVTQAIQSFCLEKIEEMLENAERERLGNSHQPEKPLVRLRVDYSGGFEPFSVLRFSQKFVDRVANPKDIIHFFRHREQKEKTGEEINFGKLITKPSEGTTLRVEDLVKQYFQTAEKNVQLSLLTERGMGEAVQEFVDKEEKDAIEELVKYQLEKTQRFLKERHIDALEDKIDEEVRRFRETRQKNTNEEDDEVREAMTRARALRSQSEESASAFSADDLMSIDLAEQMANDSDDSISAATNKGRGRGRGRRGGRGQNSASRGGSQRGRADTGLETSTRSRNSKTAVSASRNMSIIDAFKSTRQQPSRNVTTKNYSEVIEVDESDVEEDIFPTTSKTDQRWSSTSSSKIMSQSQVSKGVDFESSEDDDDDPFMNTSSLRRNRR
Difference (log2), untreated vs GFP (GFP-14-3-3β): -0.2958 log2
Difference (log2), PP1 vs untreated [1]: 0.1784 log2

More lines, main results first:

Difference (log2), PP1 vs untreated [1]: 0.1821 log2
B1: QARS (protein, UniProt P47897 2-775, looked up)
Glutamine--tRNA ligase: AALDSLSLFTSLGLSEQKARETLKNSALSAQLREAATQAQQTLGSTIDKATGILLYGLASRLRDTRRLSFLVSYIASKKIHTEPQLSAALEYVRSHPLDPIDTVDFERECGVGVIVTPEQIEEAVEAAINRHRPQLLVERYHFNMGLLMGEARAVLKWADGKMIKNEVDMQVLHLLGPKLEADLEKKFKVAKARLEETDRRTAKDVVENGETADQTLSLMEQLRGEALKFHKPGENYKTPGYVVTPHTMNLLKQHLEITGGQVRTRFPPEPNGILHIGHAKAINFNFGYAKANNGICFLRFDDTNPEKEEAKFFTAICDMVAWLGYTPYKVTYASDYFDQLYAWAVELIRRGLAYVCHQRGEELKGHNTLPSPWRDRPMEESLLLFEAMRKGKFSEGEATLRMKLVMEDGKMDPVAYRVKYTPHHRTGDKWCIYPTYDYTHCLCDSIEHITHSLCTKEFQARRSSYFWLCNALDVYCPVQWEYGRLNLHYAVVSKRKILQLVATGAVRDWDDPRLFTLTALRRRGFPPEAINNFCARVGVTVAQTTMEPHLLEACVRDVLNDTAPRAMAVLESLRVIITNFPAAKSLDIQVPNFPADETKGFHQVPFAPIVFIERTDFKEEPEPGFKRLAWGQPVGLRHTGYVIELQHVVKGPSGCVESLEVTCRRADAGEKPKAFIHWVSQPLMCEVRLYERLFQHKNPEDPTEVPGGFLSDLNLASLHVVDAALVDCSVALAKPFDKFQFERLGYFSVDPDSHQGKLVFNRTVTLKEDPGKV
Difference (log2), untreated vs GFP (GFP-14-3-3β): 0.6541 log2

Difference (log2), PP1 vs untreated [1]: 0.177 log2
B3: XPO5 (protein, UniProt Q9HAV4 2-1204, looked up)
Exportin-5: AMDQVNALCEQLVKAVTVMMDPNSTQRYRLEALKFCEEFKEKCPICVPCGLRLAEKTQVAIVRHFGLQILEHVVKFRWNGMSRLEKVYLKNSVMELIANGTLNILEEENHIKDALSRIVVEMIKREWPQHWPDMLIELDTLSKQGETQTELVMFILLRLAEDVVTFQTLPPQRRRDIQQTLTQNMERIFSFLLNTLQENVNKYQQVKTDTSQESKAQANCRVGVAALNTLAGYIDWVSMSHITAENCKLLEILCLLLNEQELQLGAAECLLIAVSRKGKLEDRKPLMVLFGDVAMHYILSAAQTADGGGLVEKHYVFLKRLCQVLCALGNQLCALLGADSDVETPSNFGKYLESFLAFTTHPSQFLRSSTQMTWGALFRHEILSRDPLLLAIIPKYLRASMTNLVKMGFPSKTDSPSCEYSRFDFDSDEDFNAFFNSSRAQQGEVMRLACRLDPKTSFQMAGEWLKYQLSTFLDAGSVNSCSAVGTGEGSLCSVFSPSFVQWEAMTLFLESVITQMFRTLNREEIPVNDGIELLQMVLNFDTKDPLILSCVLTNVSALFPFVTYRPEFLPQVFSKLFSSVTFETVEESKAPRTRAVRNVRRHACSSIIKMCRDYPQLVLPNFDMLYNHVKQLLSNELLLTQMEKCALMEALVLISNQFKNYERQKVFLEELMAPVASIWLSQDMHRVLSDVDAFIAYVGTDQKSCDPGLEDPCGLNRARMSFCVYSILGVVKRTCWPTDLEEAKAGGFVVGYTSSGNPIFRNPCTEQILKLLDNLLALIRTHNTLYAPEMLAKMAEPFTKALDMLDAEKSAILGLPQPLLELNDSPVFKTVLERMQRFFSTLYENCFHILGKAGPSMQQDFYTVEDLATQLLSSAFVNLNNIPDYRLRPMLRVFVKPLVLFCPPEHYEALVSPILGPLFTYLHMRLSQKWQVINQRSLLCGEDEAADENPESQEMLEEQLVRMLTREVMDLITVCCVSKKGADHSSAPPADGDDEEMMATEVTPSAMAELTDLGKCLMKHEDVCTALLITAFNSLAWKDTLSCQRTTSQLCWPLLKQVLSGTLLADAVTWLFTSVLKGLQMHGQHDGCMASLVHLAFQIYEALRPRYLEIRAVMEQIPEIQKDSLDQFDCKLLNPSLQKVADKRRKDQFKRLIAGCIGKPLGEQFRKEVHIKNLPSLFKKTKPMLETEVLDNDGGGLATIFEP
Difference (log2), untreated vs GFP (GFP-14-3-3β): 1.1372 log2

Difference (log2), PP1 vs untreated [1]: 0.1978 log2
B4: RAI14 (protein, UniProt Q9P0K7 1-980, looked up)
Ankycorbin: MKSLKAKFRKSDTNEWNKNDDRLLQAVENGDAEKVASLLGKKGASATKHDSEGKTAFHLAAAKGHVECLRVMITHGVDVTAQDTTGHSALHLAAKNSHHECIRKLLQSKCPAESVDSSGKTALHYAAAQGCLQAVQILCEHKSPINLKDLDGNIPLLLAVQNGHSEICHFLLDHGADVNSRNKSGRTALMLACEIGSSNAVEALIKKGADLNLVDSLGYNALHYSKLSENAGIQSLLLSKISQDADLKTPTKPKQHDQVSKISSERSGTPKKRKAPPPPISPTQLSDVSSPRSITSTPLSGKESVFFAEPPFKAEISSIRENKDRLSDSTTGADSLLDISSEADQQDLLSLLQAKVASLTLHNKELQDKLQAKSPKEAEADLSFDSYHSTQTDLGPSLGKPGETSPPDSKSSPSVLIHSLGKSTTDNDVRIQQLQEILQDLQKRLESSEAERKQLQVELQSRRAELVCLNNTEISENSSDLSQKLKETQSKYEEAMKEVLSVQKQMKLGLVSPESMDNYSHFHELRVTEEEINVLKQDLQNALEESERNKEKVRELEEKLVEREKGTVIKPPVEEYEEMKSSYCSVIENMNKEKAFLFEKYQEAQEEIMKLKDTLKSQMTQEASDEAEDMKEAMNRMIDELNKQVSELSQLYKEAQAELEDYRKRKSLEDVTAEYIHKAEHEKLMQLTNVSRAKAEDALSEMKSQYSKVLNELTQLKQLVDAQKENSVSITEHLQVITTLRTAAKEMEEKISNLKEHLASKEVEVAKLEKQLLEEKAAMTDAMVPRSSYEKLQSSLESEVSVLASKLKESVKEKEKVHSEVVQIRSEVSQVKREKENIQTLLKSKEQEVNELLQKFQQAQEELAEMKRYAESSSKLEEDKDKKINEMSKEVTKLKEALNSLSQLSYSTSSSKRQSQQLEALQQQVKQLQNQLAECKKQHQEVISVYRMHLLYAVQGQMDEDVQKVLKQILTMCKNQSQKK
Difference (log2), untreated vs GFP (GFP-14-3-3β): 0.7048 log2
